Laboratory results as given in publication PMC6156512.

How the values were obtained:
[1] = target: HPV 33 L1 aa 10–499 (human papillomavirus type 33) (UniProt P06416); assay: not stated; purified L1 under reducing conditions (Fig. S4); about ~8 nm in diameter; monomers to pentamer
[2] = target: HPV 33 L1 aa 10–499 (human papillomavirus type 33) (UniProt P06416); assay: cryo-EM structure; purified VLPs at ~3 mg/mL vitrified on Quantifoil holey carbon grids; FEI TF30 at 300 kV; T = 7 particle images boxed manually; pentamers to VLP
[3] = target: HPV 45 L1 aa 1–513 (human papillomavirus type 45); assay: not stated; purified L1 under reducing conditions (Fig. S4); about ~8 nm in diameter; monomers to pentamer
[4] = target: HPV 45 L1 aa 1–513 (human papillomavirus type 45); assay: cryo-EM structure; purified VLPs at ~3 mg/mL vitrified on Quantifoil holey carbon grids; FEI TF30 at 300 kV; T = 7 particle images boxed manually; pentamers to VLP
[5] = target: HPV 58 L1 aa 10–498 (human papillomavirus type 58); assay: not stated; purified L1 under reducing conditions (Fig. S4); about ~8 nm in diameter; monomers to pentamer
[6] = target: HPV 58 L1 aa 10–498 (human papillomavirus type 58); assay: cryo-EM structure; purified VLPs at ~3 mg/mL vitrified on Quantifoil holey carbon grids; FEI TF30 at 300 kV; T = 7 particle images boxed manually; pentamers to VLP
[7] = target: HPV 52 L1 aa 15–503 (human papillomavirus type 52); assay: not stated; purified L1 under reducing conditions (Fig. S4); about ~8 nm in diameter; monomers to pentamer
[8] = target: HPV 52 L1 aa 15–503 (human papillomavirus type 52); assay: cryo-EM structure; purified VLPs at ~3 mg/mL vitrified on Quantifoil holey carbon grids; FEI TF30 at 300 kV; T = 7 particle images boxed manually; pentamers to VLP

Substance: HPV 33 L1 aa 10–499 (from UniProt P06416 10-499) (domain or fragment)
- stoichiometry N [1]: 5
- stoichiometry N (pentamers per particle) [2]: 72

Substance: HPV 45 L1 aa 1–513 (natural protein)
- stoichiometry N [3]: 5
- stoichiometry N (pentamers per particle) [4]: 72

Substance: HPV 58 L1 aa 10–498 (domain or fragment)
- stoichiometry N [5]: 5
- stoichiometry N (pentamers per particle) [6]: 72

Substance: HPV 52 L1 aa 15–503 (domain or fragment)
- stoichiometry N [7]: 5
- stoichiometry N (pentamers per particle) [8]: 72
